Molecular target: His-tagged mouse Endophilin A1 SH3 domain (mouse) (UniProt Q62420)
Assay: ELISA; His-tagged mouse Endophilin A1 SH3 domain coated onto a 96-well plate, overlaid with increasing concentrations of GST-tagged Dyn1-PRR peptides; two experiments with four replicates each

Chain of His-tagged mouse Endophilin A1 SH3 domain (mouse) (Q62420 290-349): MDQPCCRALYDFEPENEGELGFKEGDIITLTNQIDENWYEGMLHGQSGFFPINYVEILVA

For “GST-Dyn1xB-PRR (dynamin 1xB proline-rich region, amino acids 746-851) (domain or fragment)”, which fold lower affinity than xA 746-864 is on record?
The fold lower affinity than xA 746-864 was 3 fold.

For “GST-Dyn1xA-PRR 751-798 (domain or fragment)”, which fold weaker affinity than xA 746-864 is on record?
Its fold weaker affinity than xA 746-864 is 9 fold.

— article PMC11329700
